From the supplement of paper PMC10567573

B1: ZBED2 (parent)
chain: FHLAPARAGHHPNQYATCRLCGRQ

Variants of: B1
Experiment: protein stability index of a GFP-peptide fusion (GPS, HEK-293T) (PSI 1-6); higher = more stable
Conditions: c terminus: a fixed tail appended
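Note: lentivirally expressed fusions sorted by FACS into six bins by GFP to DsRed ratio, PSI derived from sequencing read proportions per bin multiplied by bin number.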

Row | Variant | protein stability index
1 | H2M | 2.43
2 | R23I | 1.93
3 | G22P | 2.92
4 | P5E | 2.36
5 | A8C | 3.28
6 | N13C | 2.97
7 | H10P | 2.05
8 | A4F | 2.14
9 | C21M | 1.26
10 | L20V | 2.27
11 | Q14D | 1.99
12 | L3A | 1.61
13 | H10T | 3.52
14 | A8P | 2.56
15 | G22C | 2.87
16 | R23M | 1.81
17 | C18F | 1.93
18 | H2T | 2.76
19 | A6P | 1.93
20 | F1H | 2.46
21 | L20T | 1.82
22 | G22A | 1.03
23 | A8R | 1.3
24 | A6F | 1.68

Row | Variant | protein stability index
25 | F1M | 2.1
26 | P12S | 2.23
27 | Q24Y | 1.53
28 | G22W | 1.7
29 | R19S | 1.92
30 | G22Q | 1.82
31 | H2Q | 2.51
32 | N13T | 1.52
33 | R19V | 2.78
34 | F1Y | 1.43
35 | L20G | 2.82
36 | F1K | 2.53
37 | H11T | 1.95
38 | H11P | 1.4
39 | A6C | 3
40 | H11A | 2.48
41 | R7C | 3.77
42 | H11Q | 1.29
43 | H11M | 2.35
44 | R19T | 1.81
45 | R7Y | 2.09
46 | R19A | 1.93
47 | A8Y | 3.15
48 | H10S | 2.24

Row | Variant | protein stability index
49 | C18W | 1.97
50 | T17C | 1.68
51 | P5V | 1.96
52 | H2I | 2.37
53 | F1G | 1.71
54 | H2N | 2.65
55 | H11I | 1.33
56 | R19N | 1.52
57 | A6N | 1.65
58 | L20N | 1.31
59 | R23Q | 2.43
60 | H2G | 1.88
61 | Q24P | 1.91
62 | C18A | 2.12
63 | R7P | 1.92
64 | H11K | 1.58
65 | T17E | 1.73
66 | R19K | 3.11
67 | Q14S | 1.48
68 | L3F | 1.93
69 | A8V | 1.65
70 | A16L | 1.42
71 | A4K | 2.32
72 | R23E | 1.54

Row | Variant | protein stability index
73 | G9H | 2.22
74 | A8D | 1.36
75 | C21K | 2.31
76 | A16I | 2.69
77 | F1P | 3.07
78 | A16M | 1.61
79 | R7E | 2.04
80 | C18P | 2.9
81 | H10V | 1.19
82 | R23F | 2.1
83 | G9F | 1.77
84 | H2D | 2.41
85 | A16P | 2.4
86 | A16T | 2.3
87 | G22I | 2.08
88 | C18S | 2.4
89 | Y15K | 1.53
90 | Y15Q | 2.65
91 | A8M | 2.75
92 | T17K | 1.72
93 | A4E | 2.05
94 | H10A | 1.22
95 | G9C | 3.72
96 | A6H | 1.92

Row | Variant | protein stability index
97 | L20C | 1.54
98 | H2A | 1.46
99 | T17L | 1.25
100 | L3E | 2.75
101 | H10Q | 2.13
102 | L3H | 1.71
103 | N13M | 1.52
104 | A6I | 1.71
105 | H11F | 1.98
106 | F1N | 2.73
107 | P12F | 2.1
108 | G9A | 1.86
109 | A8Q | 2.02
110 | C21A | 3.59
111 | G9Y | 1.99
112 | R23Y | 1.83
113 | R19Q | 2.36
114 | F1E | 3.31
115 | H10Y | 1.7
116 | A4S | 2.74
117 | P5I | 2.13
118 | H10D | 1.27
119 | P5F | 2.03
120 | H11W | 1.04

Row | Variant | protein stability index
121 | A6S | 1.61
122 | H10L | 1.7
123 | R7S | 1.4
124 | G9I | 1.84
125 | P12C | 2.67
126 | A8E | 2.34
127 | P5M | 1.05
128 | Q14P | 2.48
129 | Q24V | 1.7
130 | A16C | 2.85
131 | R19E | 1.7
132 | A4D | 1.59
133 | R7F | 2.11
134 | A16F | 2.37
135 | N13I | 1.42
136 | P5A | 2.78
137 | F1Q | 2.78
138 | C18N | 3.56
139 | T17S | 2.47
140 | G9D | 1.83
141 | C18Y | 1.93
142 | R23S | 1.52
143 | A4G | 2.19
144 | G22F | 1.95

Row | Variant | protein stability index
145 | A16N | 2.38
146 | G22Y | 2.12
147 | H11C | 2.12
148 | Q14E | 2.16
149 | A6R | 1.77
150 | A6L | 1.67
151 | A6Y | 2.19
152 | G22L | 2.57
153 | P5D | 2.83
154 | G9W | 2.05
155 | Y15F | 2.54
156 | L20M | 1.94
157 | G9V | 1.37
158 | A6K | 1.4
159 | L3K | 2.09
160 | A6D | 1.89
161 | A16E | 1.93
162 | L20F | 2.4
163 | R19G | 2.11
164 | L20H | 1.55
165 | N13A | 2.34
166 | L3C | 1.71
167 | A16H | 2.27
